# In IntAct's records for PubMed 24291004:
# B1: Glucocorticoid receptor (Homo sapiens), P04150 (parent)
# chain: MDSKESLTPGREENPSSVLAQERGDVMDFYKTLRGGATVKVSASSPSLAVASQSDSKQRRLLVDFPKGSVSNAQQPDLSKAVSLSMGLYMGETETKVMGNDLGFPQQGQISLSSGETDLKLLEESIANLNRSTSVPENPKSSASTAVSAAPTEKEFPKTHSDVSSEQQHLKGQTGTNGGNVKLYTTDQSTFDILQDLEFSSGSPGKETNESPWRSDLLIDENCLLSPLAGEDDSFLLEGNSNEDCKPLILPDTKPKIKDNGDLVLSSPSNVTLPQVKTEKEDFIELCTPGVIKQEKLGTVYCQASFPGANIIGNKMSAISVHGVSTSGGQMYHYDMNTASLSQQQDQKPIFNVIPPIPVGSENWNRCQGSGDDNLTSLGTLNFPGRTVFSNGYSSPSMRPDVSSPPSSSSTATTGPPPKLCLVCSDEASGCHYGVLTCGSCKVFFKRAVEGQHNYLCAGRNDCIIDKIRRKNCPACRYRKCLQAGMNLEARKTKKKIKGIQQATTGVSQETSENPGNKTIVPATLPQLTPTLVSLLEVIEPEVLYAGYDSSVPDSTWRIMTTLNMLGGRQVIAAVKWAKAIPGFRNLHLDDQMTLLQYSWMFLMAFALGWRSYRQSSANLLCFAPDLIINEQRMTLPCMYDQCKHMLYVSSELHRLQVSYEEYLCMKTLLLLSSVPKDGLKSQELFDEIRMTYIKELGKAIVKREGNSSQNWQRFYQLTKLLDSMHEVVENLLNYCFQTFLDKTMSIEFPEMLAEIITNQIPKYSNGNIKKLLFHQK
# Variants of: B1
# Settings: with akt1_human AKT1, P31749
# Chain of akt1_human AKT1, P31749 (P31749 whole entry): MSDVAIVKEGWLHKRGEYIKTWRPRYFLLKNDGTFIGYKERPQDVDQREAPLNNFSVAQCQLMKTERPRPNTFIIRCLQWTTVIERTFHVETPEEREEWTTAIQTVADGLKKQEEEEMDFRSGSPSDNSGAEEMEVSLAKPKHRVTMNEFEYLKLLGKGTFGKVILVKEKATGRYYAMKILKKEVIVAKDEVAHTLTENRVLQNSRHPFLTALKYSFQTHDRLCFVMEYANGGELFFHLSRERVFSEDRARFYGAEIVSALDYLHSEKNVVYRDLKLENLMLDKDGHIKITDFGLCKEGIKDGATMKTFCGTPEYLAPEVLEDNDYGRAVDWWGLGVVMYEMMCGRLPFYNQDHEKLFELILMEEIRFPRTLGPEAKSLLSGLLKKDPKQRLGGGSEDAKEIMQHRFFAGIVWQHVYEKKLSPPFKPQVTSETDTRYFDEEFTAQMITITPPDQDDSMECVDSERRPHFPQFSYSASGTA
row,effect of a mutation on the interaction,Variant
1,disrupting interaction,S134A
